Measured values as given in US20230149522A1, “POLYPEPTIDE FOR THE PROPHYLAXIS AND TREATMENT OF VIRAL INFECTIONS” (priority 2020, published 2023).
Where two headings read alike, the source gives them in different places.

B1: LD15 (protein)
chain: EEDSPDSFSSLDSEMCKDYRVLPRIGYLCPKDLKPVCGDDGQTYNNPCMLCHENLIRQTNTHIRSTGKCEESSTPGTTAASMPPSDE
modifications: human
B2: LD2/3 (protein)
chain: ARHLARAPKATAPTELNCDDFKKGERDGDFICPDYYEAVCGTDGKTYDNRCALCAENAKTGSQIGVKSEGECKSSNPEQDVCSAFRPFVRDGRLGCTRENDPVLGPDGKTHGNKCAMCAELFLKEAENAKREGETRIRRN
modifications: human
B3: LD6 (protein)
chain: ESGKATSYAELCNEYRKLVRNGKLACTRENDPIQGPDGKVHGNTCSMCEVFFQAEEEEKKKKEGESRNKR
modifications: human

Tests used:
VSV(Luc-eGFP)-CoV-2 [1] = test system: VSV(Luc-eGFP)-CoV-2
LV(Luc)-CoV-2 [2] = test system: LV(Luc)-CoV-2
LV(Luc)-G = type: cell-based, Vesicular Stomatitis Virus
VSV(Luc-eGFP)-CoV-2 [3] = assay: microbe, parasite or virus in culture; conditions: Vesicular stomatitis virus, Caco-2, read-out: IC50 VSV(Luc-eGFP)-CoV-2
LV(Luc)-CoV-2 [4] = assay: microbe, parasite or virus in culture; conditions: Severe acute respiratory syndrome coronavirus 2, Caco-2, read-out: IC50 LV(Luc)-CoV-2
[5] = test system: Caco2 (colorectal carcinoma cells)
[6] = test system: Caco2 (colorectal carcinoma cells); remark: listed apart in the source
[7] = read-out: IC50 VSV(Luc-eGFP)-CoV-2

Row | Molecule | IC50 (VSV(Luc-eGFP)-CoV-2 [1]; 2 h) | IC50 (VSV(Luc-eGFP)-G; 2 h) | IC50 (LV(Luc)-CoV-2 [2]; 1 h) | IC50 (LV(Luc)-MLV; 1 h) | IC50 LV(Luc)-G (LV(Luc)-G) | IC50 LV(Luc)-MLV (LV(Luc)-MLV) | IC50 (VSV(Luc-eGFP)-CoV-2 [3]) | IC50 (LV(Luc)-CoV-2 [4]) | IC50 (LV(Luc)-G) | IC50 (VSV(Luc-eGFP)-CoV-2 [1]; [7]) | IC50 (VSV(Luc-eGFP)-G; read-out: IC50 VSV(Luc-eGFP)-G) | IC50 (LV(Luc)-CoV-2 [2]; read-out: IC50 LV(Luc)-CoV-2) | IC50 (LV(Luc)-MLV; read-out: IC50 LV(Luc)-MLV) | toxicity at the concentrations tested [5] | toxicity at the concentrations tested [6]
1 | CC[C@H](C)[C@H](NC(=O)[C@H](C)NC(=O)[C@H](CCC(=O)O)NC(=O)[C@H](CCC(=O)O)NC(=O)[C@H](CC(C)C)NC(=O)[C@H](CCCCN)NC(=O)[C@H](CCCCN)NC(=O)[C@H](CCSC)NC(=O)[C@H](CCC(=O)O)NC(=O)[C@H](Cc1ccc(O)cc1)NC(=O)[C@H](CCC(=O)O)NC(=O)[C@H](CC(C)C)NC(=O)[C@H](CC(=O)O)NC(=O)[C@H](CC(C)C)NC(=O)[C@H](Cc1ccccc1)NC(=O)[C@@H](NC(=O)[C@@H](NC(=O)[C@H](CC(N)=O)NC(=O)[C@@H](NC(=O)[C@H](CCC(N)=O)NC(=O)[C@H](CC(=O)O)NC(=O)[C@H](CC(C)C)NC(=O)[C@@H](N)CO)[C@@H](C)CC)C(C)C)[C@@H](C)O)C(=O)N[C@@H](CCCCN)C(=O)N[C@@H](CCCCN)C(=O)N[C@@H](CC(C)C)C(=O)N[C@@H](CCC(=O)O)C(=O)N[C@@H](CCC(=O)O)C(=O)N[C@@H](CO)C(=O)N[C@@H](Cc1ccc(O)cc1)C(=O)N[C@H](C(=O)N[C@@H](CC(=O)O)C(=O)N[C@@H](CC(C)C)C(=O)N[C@@H](CCCCN)C(=O)N[C@@H](CCC(=O)O)C(=O)N[C@@H](CC(C)C)C(=O)O)[C@@H](C)CC [EK1, reference compound] | 281 nM | > 20000 nM | 82.4 nM | > 20000 nM | – | – | – | – | – | – | – | – | – | – | –
2 | CN(C)C(=O)COC(=O)Cc1ccc(OC(=O)c2ccc(NC(=N)N)cc2)cc1 [CM, camostat mesilate, reference compound] | – | – | – | – | unstable | unstable | 87.5 nM | 242 nM | – | – | – | – | – | – | –
3 | B1 | – | – | – | – | – | – | – | – | 545 nM | 1850 nM | 1020 nM | 956 nM | 1270 nM | toxic at the (two) maximum concentrations tested | –
4 | B2 | – | – | – | – | – | – | – | – | 128 nM | 411 nM | 257 nM | 181 nM | 343 nM | toxic at the (two) maximum concentrations tested | –
5 | B3 | – | – | – | – | – | unstable | – | – | 2150 nM | 4090 nM | 1610 nM | 1030 nM | – | toxic at the (two) maximum concentrations tested | toxic at the (two) maximum concentrations tested
